Where a chain is given by its changes, count along the chain named.
T1: Bovine, dephosphorylated, Myelin Basic Protein (MBP), P02687
T1 chain: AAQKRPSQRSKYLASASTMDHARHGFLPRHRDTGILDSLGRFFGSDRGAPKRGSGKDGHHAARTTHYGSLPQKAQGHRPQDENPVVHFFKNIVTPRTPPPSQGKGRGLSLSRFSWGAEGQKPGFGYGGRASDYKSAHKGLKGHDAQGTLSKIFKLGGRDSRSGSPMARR

B1: MAP4K4(HGK) (protein)
chain: MANDSPAKSLVDIDLSSLRDPAGIFELVEVVGNGTYGQVYKGRHVKTGQLAAIKVMDVTEDEEEEIKLEINMLKKYSHHRNIATYYGAFIKKSPPGHDDQLWLVMEFCGAGSITDLVKNTKGNTLKEDWIAYISREILRGLAHLHIHHVIHRDIKGQNVLLTENAEVKLVDFGVSAQLDRTVGRRNTFIGTPYWMAPEVIACDENPDATYDYRSDLWSCGITAIEMAEGAPPLCDMHPMRALFLIPRNPPPRLKSKKWSKKFFSFIEGCLVKNYMQRPSTEQLLKHPFIRDQPNERQVRIQLKDHIDRTRKKRGEKDETEYEYSGSEE
B2: MAP2K2(MEK2) (protein)
chain: MLARRKPVLPALTINPTIAEGPSPTSEGASEANLVDLQKKLEELELDEQQKKRLEAFLTQKAKVGELKDDDFERISELGAGNGGVVTKVQHRPSGLIMARKLIHLEIKPAIRNQIIRELQVLHECNSPYIVGFYGAFYSDGEISICMEHMDGGSLDQVLKEAKRIPEEILGKVSIAVLRGLAYLREKHQIMHRDVKPSNILVNSRGEIKLCDFGVSGQLIDSMANSFVGTRSYMAPERLQGTHYSVQSDIWSMGLSLVELAVGRYPIPPPDAKELEAIFGRPVVDGEEGEPHSISPRPRPPGRPVSGHGMDSRPAMAIFELLDYIVNEPPPKLPNGVFTPDFQEFVNKCLIKNPAERADLKMLTNHTFIKRSEVEEVDFAGWLCKTLRLNQPGTPTRTAV
B3: MAP2K6(MKK6) (protein)
chain: MSQSKGKKRNPGLKIPKEAFEQPQTSSTPPRDLDSKACISIGNQNFEVKADDLEPIMELGRGAYGVVEKMRHVPSGQIMAVKRIRATVNSQEQKRLLMDLDISMRTVDCPFTVTFYGALFREGDVWICMELMDTSLDKFYKQVIDKGQTIPEDILGKIAVSIVKALEHLHSKLSVIHRDVKPSNVLINALGQVKMCDFGISGYLVDSVAKTIDAGCKPYMAPERINPELNQKGYSVKSDIWSLGITMIELAILRFPYDSWGTPFQQLKQVVEEPSPQLPADKFSAEFVDFTSQCLKKNSKERPTYPELMQHPFFTLHESKGTDVASFVKLILGD
B4: MAP2K6, mutant (protein)
chain: B3 chain with S207E, T211E
B5: MAPK12(p38gamma) (protein)
chain: MSSPPPARSGFYRQEVTKTAWEVRAVYRDLQPVGSGAYGAVCSAVDGRTGAKVAIKKLYRPFQSELFAKRAYRELRLLKHMRHENVIGLLDVFTPDETLDDFTDFYLVMPFMGTDLGKLMKHEKLGEDRIQFLVYQMLKGLRYIHAAGIIHRDLKPGNLAVNEDCELKILDFGLARQADSEMTGYVVTRWYRAPEVILNWMRYTQTVDIWSVGCIMAEMITGKTLFKGSDHLDQLKEIMKVTGTPPAEFVQRLQSDEAKNYMKGLPELEKKDFASILTNASPLAVNLLEKMLVLDAEQRVTAGEALAHPYFESLHDTEDEPQVQKYDDSFDDVDRTLDEWKRVTYKEVLSFKPPRQLGARVSKETPL
B6: MAP3K9(MLK1) (protein)
chain: MEPSRALLGCLASAAAAAPPGEDGAGAGAEEEEEEEEEAAAAVGPGELGCDAPLPYWTAVFEYEAAGEDELTLRLGDVVEVLSKDSQVSGDEGWWTGQLNQRVGIFPSNYVTPRSAFSSRCQPGGEDPSCYPPIQLLEIDFAELTLEEIIGIGGFGKVYRAFWIGDEVAVKAARHDPDEDISQTIENVRQEAKLFAMLKHPNIIALRGVCLKEPNLCLVMEFARGGPLNRVLSGKRIPPDILVNWAVQIARGMNYLHDEAIVPIIHRDLKSSNILILQKVENGDLSNKILKITDFGLAREWHRTTKMSAAGTYAWMAPEVIRASMFSKGSDVWSYGVLLWELLTGEVPFRGIDGLAVAYGVAMNKLALPIPSTCPEPFAKLMEDCWNPDPHSRPSFTNILDQLTTIEESGFFEMPKDSFHCLQDNWKHEIQEMFDQLRAKEKELRTWEEELTRAALQQKNQEELLRRREQELAEREIDILERELNIIIHQLCQEKPRVKK
B7: MAP2K3(MEK3) (protein)
chain: MSKPPAPNPTPPRNLDSRTFITIGDRNFEVEADDLVTISELGRGAYGVVEKVRHAQSGTIMAVKRIRATVNSQEQKRLLMDLDINMRTVDCFYTVTFYGALFREGDVWICMELMDTSLDKFYRKVLDKNMTIPEDILGEIAVSIVRALEHLHSKLSVIHRDVKPSNVLINKEGHVKMCDFGISGYLVDSVAKTMDAGCKPYMAPERINPELNQKGYNVKSDVWSLGITMIEMAILRFPYESWGTPFQQLKQVVEEPSPQLPADRFSPEFVDFTAQCLRKNPAERMSYLELMEHPFFTLHKTKKTDIAAFVKEILGEDS
B8: MAPK11(p38B) (protein)
chain: MSGPRAGFYRQELNKTVWEVPQRLQGLRPVGSGAYGSVCSAYDARLRQKVAVKKLSRPFQSLIHARRTYRELRLLKHLKHENVIGLLDVFTPATSIEDFSEVYLVTTLMGADLNNIVKCQALSDEHVQFLVYQLLRGLKYIHSAGIIHRDLKPSNVAVNEDCELRILDFGLARQADEEMTGYVATRWYRAPEIMLNWMHYNQTVDIWSVGCIMAELLQGKALFPGSDYIDQLKRIMEVVGTPSPEVLAKISSEHARTYIQSLPPMPQKDLSSIFRGANPLAIDLLGRMLVLDSDQRVSAAEALAHAYFSQYHDPEDEPEAEPYDESVEAKERTLEEWKELTYQEVLSFKPPEPPKPPGSLEIEQ
B9: MAP3K11(MLK3) (protein)
chain: MEPLKSLFLKSPLGSWNGSGSGGGGGGGGGRPEGSPKAAGYANPVWTALFDYEPSGQDELALRKGDRVEVLSRDAAISGDEGWWAGQVGGQVGIFPSNYVSRGGGPPPCEVASFQELRLEEVIGIGGFGKVYRGSWRGELVAVKAARQDPDEDISVTAESVRQEARLFAMLAHPNIIALKAVCLEEPNLCLVMEYAAGGPLSRALAGRRVPPHVLVNWAVQIARGMHYLHCEALVPVIHRDLKSNNILLLQPIESDDMEHKTLKITDFGLAREWHKTTQMSAAGTYAWMAPEVIKASTFSKGSDVWSFGVLLWELLTGEVPYRGIDCLAVAYGVAVNKLTLPIPSTCPEPFAQLMADCWAQDPHRRPDFASILQQLEALEAQVLREMPRDSFHSMQEGWKREIQGLFDELRAKEKELLSREEELTRAAREQRSQAEQLRRREHLLAQWELEVFERELTLLLQQVDRERPHVRRRRGTFKRSKLRARDGGERISMPLDFKHRITVQASPGLDRRRNVFEVGPGDSPTFPRFRAIQLEPAEPGQAWGRQSPRRLEDSSNGERRACWAWGPSSPKPGEAQNGRRRSRMDEATWYLDSDDSSPLGSPSTPPALNGNPPRPSLEPEEPKRPVPAERGSSSGTPKLIQRALLRGTALLASLGLGRDLQPPGGPGRERGESPTTPPTPTPAPCPTEPPPSPLICFSLKTPDSPPTPAPLLLDLGIPVGQRSAKSPRREEEPRGGTVSPPPGTSRSAPGTPGTPRSPPLGLISRPRPSPLRSRIDPWSFVSAGPRPSPLPSPQPAPRRAPWTLFPDSDPFWDSPPANPFQGGPQDCRAQTKDMGAQAPWVPEAGP
B10: MAP3K2(MEKK2) (protein)
chain: MDDQQALNSIMQDLAVLHKASRPALSLQETRKAKSSSPKKQNDVRVKFEHRGEKRILQFPRPVKLEDLRSKAKIAFGQSMDLHYTNNELVIPLTTQDDLDKAVELLDRSIHMKSLKILLVINGSTQATNLEPLPSLEDLDNTVFGAERKKRLSIIGPTSRDRSSPPPGYIPDELHQVARNGSFTSINSEGEFIPESMDQMLDPLSLSSPENSGSGSCPSLDSPLDGESYPKSRMPRAQSYPDNHQEFSDYDNPIFEKFGKGGTYPRRYHVSYHHQEYNDGRKTFPRARRTQGTSLRSPVSFSPTDHSLSTSSGSSIFTPEYDDSRIRRRGSDIDNPTLTVMDISPPSRSPRAPTNWRLGKLLGQGAFGRVYLCYDVDTGRELAVKQVQFDPDSPETSKEVNALECEIQLLKNLLHERIVQYYGCLRDPQEKTLSIFMEYMPGGSIKDQLKAYGALTENVTRKYTRQILEGVHYLHSNMIVHRDIKGANILRDSTGNVKLGDFGASKRLQTICLSGTGMKSVTGTPYWMSPEVISGEGYGRKADIWSVACTVVEMLTEKPPWAEFEAMAAIFKIATQPTNPKLPPHVSDYTRDFLKRIFVEAKLRPSADELLRHMFVHYH
B11: MAP3K5(ASK1) (protein)
chain: MSTEADEGITFSVPPFAPSGFCTIPEGGICRRGGAAAVGEGEEHQLPPPPPGSFWNVESAAAPGIGCPAATSSSSATRGRGSSVGGGSRRTTVAYVINEASQGQLVVAESEALQSLREACETVGATLETLHFGKLDFGETTVLDRFYNADIAVVEMSDAFRQPSLFYHLGVRESFSMANNIILYCDTNSDSLQSLKEIICQKNTMCTGNYTFVPYMITPHNKVYCCDSSFMKGLTELMQPNFELLLGPICLPLVDRFIQLLKVAQASSSQYFRESILNDIRKARNLYTGKELAAELARIRQRVDNIEVLTADIVINLLLSYRDIQDYDSIVKLVETLEKLPTFDLASHHHVKFHYAFALNRRNLPGDRAKALDIMIPMVQSEGQVASDMYCLVGRIYKDMFLDSNFTDTESRDHGASWFKKAFESEPTLQSGINYAVLLLAAGHQFESSFELRKVGVKLSSLLGKKGNLEKLQSYWEVGFFLGASVLANDHMRVIQASEKLFKLKTPAWYLKSIVETILIYKHFVKLTTEQPVAKQELVDFWMDFLVEATKTDVTVVRFPVLILEPTKIYQPSYLSINNEVEEKTISIWHVLPDDKKGIHEWNFSASSVRGVSISKFEERCCFLYVLHNSDDFQIYFCTELHCKKFFEMVNTITEEKGRSTEEGDCESDLLEYDYEYDENGDRVVLGKGTYGIVYAGRDLSNQVRIAIKEIPERDSRYSQPLHEEIALHKHLKHKNIVQYLGSFSENGFIKIFMEQVPGGSLSALLRSKWGPLKDNEQTIGFYTKQILEGLKYLHDNQIVHRDIKGDNVLINTYSGVLKISDFGTSKRLAGINPCTETFTGTLQYMAPEIIDKGPRGYGKAADIWSLGCTIIEMATGKPPFYELGEPQAAMFKVGMFKVHPEIPESMSAEAKAFILKCFEPDPDKRACANDLLVDEFLKVSSKKKKTQPKLSALSAGSNEYLRSISLPVPVLVEDTSSSSEYGSVSPDTELKVDPFSFKTRAKSCGERDVKGIRTLFLGIPDENFEDHSAPPSPEEKDSGFFMLRKDSERRATLHRILTEDQDKIVRNLMESLAQGAEEPKLKWEHITTLIASLREFVRSTDRKIIATTLSKLKLELDFDSHGISQVQVVLFGFQDAVNKVLRNHNIKPHWMFALDSIIRKAVQTAITILVPELRPHFSLASESDTADQEDLDVEDDHEEQPSNQTVRRPQAVIEDAVATSGVSTLSSTVSHDSQSAHRSLNVQLGRMKIETNRLLEELVRKEKELQALLHRAIEEKDQEIKHLKLKSQPIEIPELPVFHLNSSGTNTEDSELTDWLRVNGADEDTISRFLAEDYTLLDVLYYVTRDDLKCLRLRGGMLCTLWKAIIDFRNKQT

Target: T1, Bovine, dephosphorylated, Myelin Basic …

| Protein | MBP Kinase Activity |
| --- | --- |
| B1 | Strong |
| B2 | Negative |
| B3 | Weak |
| B4 | Negative |
| B5 | Strong |
| B6 | Strong |
| B7 | Negative |
| B8 | Strong |
| B9 | Negative |
| B10 | Weak |
| B11 | Weak |

From patent US20090099029
